Measurements taken from article PMC10687025, “Endosomal Arl4A attenuates EGFR degradation by binding to the ESCRT-II component VPS36” (Nature Communications, 2023).

Experiments:
Assay in all cases: pull-down; 2 μg GST fusion protein on glutathione beads with 2 μg His-tagged Arl4A in 1 ml binding buffer (20 mM Tris-HCl pH 8.0, 150 mM NaCl, 5 mM MgCl2, 1 mM EDTA, 1 mM DTT, 10% glycerol, 1% Triton X-100), 1 h at 4 °C; anti-His blot
Conditions in all cases: both partners purified
His-tagged Arl4A T51N = biological target: T1, His-tagged Arl4A T51N (UniProt P40617 1-200, T51N)
T1 construct: Arl4A, mutant T51N; also called His-Arl4A T51N; source: recombinant, purified (Ni-NTA resin)
T1 sequence (looked up): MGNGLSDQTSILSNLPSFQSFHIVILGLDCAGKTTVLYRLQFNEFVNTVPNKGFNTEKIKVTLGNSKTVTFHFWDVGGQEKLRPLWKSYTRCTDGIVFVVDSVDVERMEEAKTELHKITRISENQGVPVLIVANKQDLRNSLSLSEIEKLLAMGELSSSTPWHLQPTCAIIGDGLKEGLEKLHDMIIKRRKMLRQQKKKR

His-tagged Arl4A Q79L = biological target: T2, His-tagged Arl4A Q79L (UniProt P40617 1-200, Q79L)
T2 construct: Arl4A, mutant Q79L; source: recombinant, purified (Ni-NTA resin)
T2 sequence (looked up): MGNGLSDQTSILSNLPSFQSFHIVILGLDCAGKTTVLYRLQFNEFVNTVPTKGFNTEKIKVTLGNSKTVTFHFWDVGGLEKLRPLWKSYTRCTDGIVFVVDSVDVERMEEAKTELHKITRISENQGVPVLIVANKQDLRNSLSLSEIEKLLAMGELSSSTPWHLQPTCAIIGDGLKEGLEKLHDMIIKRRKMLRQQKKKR

His-tagged Arl4A WT = biological target: T3, His-tagged Arl4A WT (UniProt P40617 1-200)
T3 construct: Arl4A, wild type; also called His-Arl4A; source: recombinant, purified (Ni-NTA resin)
T3 sequence (looked up): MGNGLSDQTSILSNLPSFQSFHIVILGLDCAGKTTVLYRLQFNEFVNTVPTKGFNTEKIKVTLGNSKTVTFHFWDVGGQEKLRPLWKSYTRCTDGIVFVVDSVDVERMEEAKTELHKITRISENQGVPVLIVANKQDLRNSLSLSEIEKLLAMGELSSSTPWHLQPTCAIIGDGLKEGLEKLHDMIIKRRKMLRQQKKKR

Measured: binding result

B1: GST-VPS36 (201–386) (domain or fragment, UniProt Q86VN1 201-386, looked up)
chain: KIKDKQGDITEDETIRFKSYLLSMGIANPVTRETYGSGTQYHMQLAKQLAGILQVPLEERGGIMSLTEVYCLVNRARGMELLSPEDLVNACKMLEALKLPLRLRVFDSGVMVIELQSHKEEEMVASALETVSEKGSLTSEEFAKLVGMSVLLAKERLLLAEKMGHLCRDDSVEGLRFYPNLFMTQS
notes: source: E. coli BL21, purified on glutathione Sepharose 4B beads
binds: His-tagged Arl4A T51N | His-tagged Arl4A Q79L | His-tagged Arl4A WT
